Reference: the DeepSol protein solubility set

experiment: soluble on expression in E. coli; label from the status in PepcDB or PDB records

Sequence | soluble on expression in E. coli
VRTHEVVLHRIEQDLAAGKLTVGGRLPAERALAEELGVGRSSVREAMRVLEAMGIVRTAVGSGPDAGAIVAADPAASIGAAIRLHMATRTLPIHDVVQTRTLLESWAVQEAAGQAPDLDFSAIDTLLDAMDDEDLSPEAFHRLDADLHVAMAGLAGNVLVEAMMVSLRDSIHGYVMQAVPLLDDWPAVATHLRCEHRGIVAALRDGHGAEAAGLVREHIEGFYGRFAPVRG | not soluble
VSAHVATLHPEPPFALCGPRGTLIARGVRTRYCDVRAAQAALRSGTAPILLGALPFDVSRPAALMVPDGVLRARKLPDWPTGPLPKVRVAAALPPPADYLTRIGRARDLLAAFDGPLHKVVLARAVQLTADAPLDARVLLRRLVVADPTAYGYLVDLTSAGNDDTGAALVGASPELLVARSGNRVMCKPFAGSAPRAADPKLDAANAAALASSAKNRHEHQLVVDTMRVALEPLCEDLTIPAQPQLNRTAAVWHLCTAITGRLRNISTTAIDLALALHPTPAVGGVPTKAATELIAELEGDRGFYAGAVGWCDGRGDGHWVVSIRCAQLSADRRAALAHAGGGIVAESDPDDELEETTTKFATILTALGVEQ | not soluble
VSKRAAPFLYMITQRIEERGLPMELALLPVVESSFDAFAYSHGSAAGLWQFVPGTGKMMGLEQNYWYDGRRDVAASTDAALDYLVQLNERFDGNWEHAIAAYNSGGGRVSSAIRKNKKLGKPVDFFSLDLPKETSSYVPKLLALADVVANQEKYGIDIPSIPNKPVLT | not soluble
VTGPGSPPLAWTELERLVAAGDVDTVIVAFTDMQGRLAGKRISGRHFVDDIATRGVECCSYLLAVDVDLNTVPGYAMASWDTGYGDMVMTPDLSTLRLIPWLPGTALVIADLVWADGSEVAVSPRSILRRQLDRLKARGLVADVATELEFIVFDQPYRQAWASGYRGLTPASDYNIDYAILASSRMEPLLRDIRLGMAGAGLRFEAVKGECNMGQQEIGFRYDEALVTCDNHAIYKNGAKEIADQHGKSLTFMAKYDEREGNSCHIHVSLRGTDGSAVFADSNGPHGMSSMFRSFVAGQLATLREFTLCYAPTINSYKRFADSSFAPTALAWGLDNRTCALRVVGHGQNIRVECRVPGGDVNQYLAVAALIAGGLYGIERGLQLPEPCVGNAYQGADVERLPVTLADAAVLFEDSALVREAFGEDVVAHYLNNARVELAAFNAAVTDWERIRGFERL | not soluble
VTQPSGLKNLLRAAAGALPVVPRTDQLPNRTVTVEELPIDPANVAAYAAVTGLRYGNQVPLTYPFALTFPSVMSLVTGFDFPFAAMGAIHTENHITQYRPIAVTDAVGVRVRAENLREHRRGLLVDLVTNVSVGNDVAWHQVTTFLHQQRTSLSGEPKPPPQKKPKLPPPAAVLRITPAKIRRYAAVGGDHNPIHTNPIAAKLFGFPTVIAHGMFTAAAVLANIEARFPDAVRYSVRFAKPVLLPATAGLYVAEGDGGWDLTLRNMAKGYPHLTATVRGL | not soluble
VTTMHDVARAAGVSQAAVSYAYNQPHKLSAARRAHIFQVAAELGYAGPNPAGRNLRTGQVGALGLMITDSLRYAFDDPATSQLLKGISEVGELAEVALTLLPCPLESTRVAEGSGVLVRGAVDGFLAYAMPDGHPGMQTAMSRRLPIVVIDGPNPGGLPRVGIRDRQAAKEIAEHVLSLGHRRVGFLVDRLVPDGKGGPVDAARTRAARDHVMKERLAGYASACRKYTVPWSSTVVVEAGGFDYELSRTAVETLLDAGPVTAVIAASDLLALAAIDVAHERGLRVPQDLSVVGFDDIPAARAAGLTTVRQPLVDKGREAAQLLLDIIGGGAGREITLPTELVVRESAGPVTADR | not soluble
VVPGDASSVVSVNPAKPLISVCIPMYNNGATIERCLRSILEQEGVEFEIVVVDDDSSDDCAAIAATMLRPGDRLLRNEPRLGLNRNHNKCLEVARGGLIQFVHGDDRLLPGALQTLSRRFEDPSVGMAFAPRRVESDDIKWQQRYGRVHTRFRKLRDRNHGPSLVLQMVLHGAKENWIGEPTAVMFRRQLALDAGGFRTDIYQLVDVDFWLRLMLRSAVCFVPHELSVRRHTAATETTRVMATRRNVLDRQRILTWLIVDPLSPNSVRSAAALWWIPAWLAMIVEVAVLGPQRRTHLKALAPAPFREFAHARRQLPMAD | not soluble
VVRRLTSPRLEFEAAAIYEYPEHLRSFLNDLPTRPGVYLFHGESDTMPLYIGKSVNIRSRVLSHLRTPDEAAMLRQSRRISWICTAGEIGALLLEARLIKEQQPLFNKRLRRNRQLCALQLNEKRVDVVYAKEVDFSRAPNLFGLFANRRAALQALQTIADEQKLCYGLLGLEPLSRGRACFRSALKRCAGACCGKESHEEHALRLRQSLERLRVVCWPWQGAVALKEQHPEMTQYHIIQNWLWLGAVNSLEEATTLIRTPAGFDHDGYKILCKPLLSGNYEITELDPANDQRAS | soluble
WQGLSSKGDLPQVEITKAFFAKQADEVTLQQADVVLVLQQEDGWLYGERLRDGETGWFPEDFARFI | soluble
YAGTSDAPYTGGFMNTFNYRNWELNLNFSYNLGAHVKTDPTYYIADPDPGRNMNRDILDRWTPENKNGKFPALTSLNTNPADYYLFSTRRDLYKSLDIWVKKLSYIRLQNIRLAYHFPSEWLHKLNIGGATVGLEARNLFVFGSSYKNYMDPESMSNLYSTPVPKSVTFNLSLNF | not soluble
YKDSPKVLGQTYSSLLIDFTEGFHPNDLGIIVETIKEGGIIIAFSPPIEQWENLKSRWHEELVSEPYTVEDVTGRFFARFMRRTLQAEGIIIFD | not soluble
YLASDGKTIILVGKNNLQNDELTFKMSKKGELWFHAKDIPGSHVLIKDNLNPSDEIKTDAAELAAYFSKARLSNLVQVDMIEAKKLNK | not soluble
YRQQFDFSCGSAALASLLTFHYDDSVDEQSVFVDMFQHGDQEKIRREGFSMLDMKRYLERRGYGSDGFKINLDQLYSTGSPAITIINHNGYMHFVIIKGVDEDRVLVGDPAQGVKSMDRTEFERMWGNRIVFLIHNHVD | not soluble
YSGLHLCESHLCRAVTKRVRRRIREDGLVSDDATVEDPETWVIGLSGGKDSVVLTQILHDTFAEDPRIELVALSIHEGIEGYRDASLEACEELTDDLGIEHVTVSYAEEFGVQMDDVVEDDPEGMAACAYCGVFRRDLLSKYAEELDADKLLTGHNLDDEAETALMNFLEGDISQIAKHFEASLGPFDSSADAPTEQTREAQDHHIPRAKPLRDIPEKEVALYARFEDLPAHITEC | not soluble
